Results on ten molecules are retold here after patent US20100254992A1 (published 2010).

Assay [1] has as its target T1, Human Monocyte Chemoattractant Protein-1 (MCP-1) (human, UniProt P13500 24-99, 125I label on the radioligand form; letters are the unlabelled wild-type protein). The assay can be described thus: cell-based or functional assay.
The target of assay [2] is T2, cynomolgus monkey MCP-1 (cynomolgus monkey, UniProt P61274 24-99).
T2 construct: also called cyno MCP-1; cyno CCL-2
The assay can be described thus: BioVeris, Cyno MCP-1 Kd. Here is the method: (§1) Affinity determination in solution was basically performed as described in the literature (Friguet et al., 1985). In order to improve the sensitivity and accuracy of the SET method, it was transferred from classical ELISA to ECL based BioVeris technology (Haenel et al., 2005, accepted for publication in Analytical Biochemistry). 1 mg/ml goat-anti-human (Fab)₂ or goat-anti-mouse IgG, Fc fragment specific antibodies (Jackson Immuno Research) were labelled with BV-tag™ NHS-Ester (Bioveris Europe, Witney, Oxfordshire, UK) according to manufacturer's instructions. The experiments were carried out in polypropylene microtiter plates and PBS pH 7.4 with 0.5% BSA and 0.02% Tween 20 as assay buffer. Unlabeled antigen was diluted in 4ⁿ series: For human and cyno MCP-1 a concentration range of 10 pM to 40 nM and for cross-reactivity controls (Eotaxin and MCP-2) a concentration range of 40 pM to 160 nM was chosen. Wells without antigen were used to determine Smax values. After addition of 100 pM Fab or IgG (final concentration in 75 μL final volume), the mixture was incubated for 2 hours at RT. Subsequently a mixture of 25 μl Dynabeads (0.4 mg/ml M-280 Streptavidin, DYNAL, Hamburg), coated with 0.25 μg/ml biotinylated MCP-1 (K69) and BV-tag labeled detection antibody in a final dilution of 1:4000 for anti-human Fab or 1:2000 for anti-mouse IgG were added per well.
(§2) Solution Equilibrium Titration Using BioVeris. As an alternative method for sensitive KD determinations, the solution equilibrium titration (SET) using BioVeris technology was performed. Monovalent dissociation constants were calculated by means of appropriate fit models for Fab and IgG. This method was suitable for affinity measurement and cross-reactivity studies. All selected 16 binders were analyzed by solution equilibrium titration (SET) using BioVeris (Table 5 and Table 6) and these affinity values were regarded as the final affinity values.

Assay [3] has as its target T1, Human Monocyte Chemoattractant …. In words: IGEN (BioVeris), MCP-1 Kd. As to the method:
as §1, §2

Assay [4] has the same target. In words: BioVeris solution equilibrium titration, Fab, rh MCP-1. Here is the method:
as §1, §2

The target is the same in assay [5]. In words: 125I-MCP-1 binding to CCR2 on THP-1 cells, radioligand competition. (In general: In a radioligand displacement assay an active substance lowers the binding of a labelled ligand.)
Assay [6] has as its target T3, human Eotaxin 3 (human, UniProt Q9Y258 24-94).
T3 sequence (looked up): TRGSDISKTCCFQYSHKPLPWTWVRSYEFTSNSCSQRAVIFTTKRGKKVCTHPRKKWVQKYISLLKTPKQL
The assay can be described thus: Biacore, IgG capture mode.

Assay [7] deals with T4, human MCP-2 (human, UniProt P80075 24-99).
T4 construct: also called CCL8
T4 sequence (looked up): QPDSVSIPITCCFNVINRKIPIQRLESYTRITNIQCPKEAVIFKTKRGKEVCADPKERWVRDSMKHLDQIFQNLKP
The assay can be described thus: Biacore, IgG capture mode. On the technique in general: SPR reads the build-up and loss of mass on a sensor chip optically.

For assay [8], the target named is T5, human MCP-3 (human, UniProt P80098 24-99).
T5 construct: also called CCL7
T5 sequence (P80098 24-99 limits assumed): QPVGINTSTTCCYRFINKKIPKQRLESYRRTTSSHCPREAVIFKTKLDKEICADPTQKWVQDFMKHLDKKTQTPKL
In words: Biacore, IgG capture mode.

Assay [9] has as its target T6, human MCP-4 (human, UniProt Q99616 24-98, limits assumed).
T6 construct: also called CCL13
In words: Biacore, IgG capture mode.

Assay [10] addresses human Eotaxin 1 (human, UniProt P51671 24-97). The assay can be described thus: Biacore, IgG capture mode.
Assay [11] addresses T7, human Eotaxin 2 (human, UniProt O00175 27-104, limits assumed).
T7 sequence (looked up): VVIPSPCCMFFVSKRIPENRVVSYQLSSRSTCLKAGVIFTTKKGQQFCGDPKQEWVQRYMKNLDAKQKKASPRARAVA
The assay can be described thus: Biacore, IgG capture mode.

For assay [12], the target named is T2, cynomolgus monkey MCP-1. The assay can be described thus: BioVeris solution equilibrium titration, Fab, cyno MCP-1. Here is the method: as §1, §2
In assay [13] the target is T1, Human Monocyte Chemoattractant …. The assay can be described thus: BioVeris solution equilibrium titration, IgG1, rh MCP-1. Here is the method:
as §1, §2

Assay [14] addresses T2, cynomolgus monkey MCP-1. The assay can be described thus: BioVeris solution equilibrium titration, IgG1, cyno MCP-1. As to the method: as §1, §2

Sequence of human Eotaxin 1 (P51671 24-97 limits assumed): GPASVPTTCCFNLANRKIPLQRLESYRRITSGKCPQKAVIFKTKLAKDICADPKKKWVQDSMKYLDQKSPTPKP
T2 sequence (P61274 24-99 limits assumed): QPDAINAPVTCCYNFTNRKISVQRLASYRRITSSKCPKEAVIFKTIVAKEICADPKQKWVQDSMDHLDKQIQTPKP
T1 sequence (P13500 24-99 limits assumed): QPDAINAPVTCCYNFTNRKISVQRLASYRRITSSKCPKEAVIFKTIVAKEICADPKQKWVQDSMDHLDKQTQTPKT
T6 sequence (Q99616 24-98 limits assumed): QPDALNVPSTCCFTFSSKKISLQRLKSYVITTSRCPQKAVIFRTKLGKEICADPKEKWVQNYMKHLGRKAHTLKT

B1: MOR03781 Fab (Fab, V domains shown)
VH: QVELVQSGAEVKKPGSSVKVSCKASGGTFSSYGISWVRQAPGQGLEWMGGIIPIFGTANYAQKFQGRVTITADESTSTAYMELSSLRSEDTAVYYCARYDGIYGELDFWGQGTLVTVSS
VL: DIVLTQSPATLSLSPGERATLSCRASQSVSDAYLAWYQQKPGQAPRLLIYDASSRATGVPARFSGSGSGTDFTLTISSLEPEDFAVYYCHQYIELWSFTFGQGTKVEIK
notes: MOR03471 derivative (L-CDR3); Fab with C-terminal FLAG and 6x His tags; also called MOR3781; MOR3781k
B1: the “Inhibition of Ca2+ Mobilization IC50” value in assay [1] is 21.8 nM. For the same molecule, the Kd came to 0.01 nM in assay [2], 0.03 nM in assay [3] and 0.03 nM in [4]. In assay [5], this molecule returned a 50% inhibitory concentration (IC50) of 0.18 nM.

B2: MOR03849 IgG (antibody, V domains shown)
VH: QVELVQSGAEVKKPGSSVKVSCKASGGTFSSYGISWVRQAPGQGLEWMGAINPLAGHTHYAQKFQGRVTITADESTSTAYMELSSLRSEDTAVYYCARYDGIYGELDFWGQGTLVTVSS
VL: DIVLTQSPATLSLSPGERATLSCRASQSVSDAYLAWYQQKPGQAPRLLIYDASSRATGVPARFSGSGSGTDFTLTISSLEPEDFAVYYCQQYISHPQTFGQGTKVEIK
Turning to B2, the binding result in assay [6], in assay [7], in assay [8], in assay [9], in assay [10] and in assay [11] was “no binding (tested: 100 nM)” throughout.

B3: MOR03878 Fab (Fab, V domains shown)
VH: QVELVQSGAEVKKPGSSVKVSCKASGGTFSSYGISWVRQAPGQGLEWMGAINPLAGHTHYAQKFQGRVTITADESTSTAYMELSSLRSEDTAVYYCARYDGIYGELDFWGQGTLVTVSS
VL: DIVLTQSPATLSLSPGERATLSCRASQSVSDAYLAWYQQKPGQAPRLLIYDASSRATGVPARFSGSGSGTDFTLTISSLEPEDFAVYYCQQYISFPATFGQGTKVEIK
notes: MOR03471 cross-clone (3822 × 3794); Fab with C-terminal FLAG and 6x His tags; also called MOR3878; MOR3878k
As for B3, the “Inhibition of Ca2+ Mobilization IC50” value in assay [1] turned out to be 20.2 nM. Also, the Kd in [2], in assay [3], in assay [4] and in assay [12] was 0.32 nM in each case. In addition, the IC50 in assay [5] is 0.11 nM.

B4: MOR03885 IgG (antibody, V domains shown)
VH: QVELVQSGAEVKKPGSSVKVSCKASGGTFSSYGISWVRQAPGQGLEWMGAINPLAGHTHYAQKFQGRVTITADESTSTAYMELSSLRSEDTAVYYCARYDGIYGELDFWGQGTLVTVSS
VL: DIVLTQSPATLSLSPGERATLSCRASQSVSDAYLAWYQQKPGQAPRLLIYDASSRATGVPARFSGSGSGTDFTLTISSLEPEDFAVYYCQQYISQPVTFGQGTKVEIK
B4: the binding result in [6], in [7], in assay [8], in [9], in [10] and in assay [11] was “no binding (tested: 100 nM)” each time.

B5: MOR03850 Fab (Fab, V domains shown)
VH: QVELVQSGAEVKKPGSSVKVSCKASGGTFSSYGISWVRQAPGQGLEWMGAINPLAGHTHYAQKFQGRVTITADESTSTAYMELSSLRSEDTAVYYCARYDGIYGELDFWGQGTLVTVSS
VL: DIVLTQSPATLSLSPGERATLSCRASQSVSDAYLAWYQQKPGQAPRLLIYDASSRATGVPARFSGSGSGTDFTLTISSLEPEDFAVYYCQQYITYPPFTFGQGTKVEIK
notes: MOR03471 cross-clone (3822 × 3819); Fab with C-terminal FLAG and 6x His tags; also called MOR3850; MOR3850k
Regarding B5, the “Inhibition of Ca2+ Mobilization IC50” value in [1] amounted to 28.4 nM. In addition, the dissociation constant (Kd) in assay [2], in assay [3], in assay [4] and in [12] was 0.04 nM each time. This molecule gave a half-inhibitory concentration (IC50) in assay [5] of 0.16 nM.

B6: MOR03781 IgG1 (antibody, V domains shown)
VH: QVELVQSGAEVKKPGSSVKVSCKASGGTFSSYGISWVRQAPGQGLEWMGGIIPIFGTANYAQKFQGRVTITADESTSTAYMELSSLRSEDTAVYYCARYDGIYGELDFWGQGTLVTVSS
VL: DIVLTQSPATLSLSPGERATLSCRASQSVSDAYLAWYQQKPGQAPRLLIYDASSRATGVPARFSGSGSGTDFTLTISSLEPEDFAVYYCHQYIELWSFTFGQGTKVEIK
notes: Human IgG1; also called MOR3781 IgG1; MOR3781k IgG
In the case of B6, the binding result in assay [6], in assay [8], in [9], in [10] and in assay [11] was “no binding (tested: 100 nM)” each time. Further, the “Inhibition of Ca2+ Mobilization IC50” value in assay [1] is 10.9 nM. The Kd is 0.02 nM in [2], 0.02 nM in assay [3], 0.02 nM in [13] and 0.016 nM in assay [14]. Besides, the IC50 in assay [5] was 0.02 nM.

B7: MOR03899 Fab (Fab, V domains shown)
VH: QVELVQSGAEVKKPGSSVKVSCKASGGTFSSYGISWVRQAPGQGLEWMGAINPLAGHTHYAQKFQGRVTITADESTSTAYMELSSLRSEDTAVYYCARYDGIYGELDFWGQGTLVTVSS
VL: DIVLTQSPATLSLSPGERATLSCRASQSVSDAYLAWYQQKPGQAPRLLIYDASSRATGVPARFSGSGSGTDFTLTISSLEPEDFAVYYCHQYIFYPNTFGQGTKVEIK
notes: MOR03471 cross-clone (3822 × 3876); Fab with C-terminal FLAG and 6x His tags; also called MOR3899; MOR3899k
With B7, the “Inhibition of Ca2+ Mobilization IC50” value in assay [1] is 17.5 nM. In addition, the Kd in assay [2] was found to be 0.49 nM; in [3] it was 0.81 nM; in assay [4], 0.81 nM; in [12], 0.49 nM. For the same molecule, in [5], the IC50 was 0.13 nM.

B8: MOR03878 IgG1 (antibody, V domains shown)
VH: QVELVQSGAEVKKPGSSVKVSCKASGGTFSSYGISWVRQAPGQGLEWMGAINPLAGHTHYAQKFQGRVTITADESTSTAYMELSSLRSEDTAVYYCARYDGIYGELDFWGQGTLVTVSS
VL: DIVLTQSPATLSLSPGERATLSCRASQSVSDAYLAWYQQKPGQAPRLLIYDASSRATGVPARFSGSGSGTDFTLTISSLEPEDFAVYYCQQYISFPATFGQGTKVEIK
notes: Human IgG1; also called MOR3878 IgG1; MOR3878k IgG
Take B8: the binding result in [6], in assay [8], in assay [9] and in [11] was “no binding (tested: 100 nM)” in each case. Moreover, the “Inhibition of Ca2+ Mobilization IC50” value in assay [1] is 6.7 nM. The dissociation constant Kd in [2] is 0.23 nM; in [3], 0.27 nM; in assay [13], 0.27 nM; in [14] it was 0.23 nM. For the same molecule, the 50% inhibitory concentration (IC50) in assay [5] was found to be 0.03 nM.

B9: MOR03899 IgG1 (antibody, V domains shown)
VH: QVELVQSGAEVKKPGSSVKVSCKASGGTFSSYGISWVRQAPGQGLEWMGAINPLAGHTHYAQKFQGRVTITADESTSTAYMELSSLRSEDTAVYYCARYDGIYGELDFWGQGTLVTVSS
VL: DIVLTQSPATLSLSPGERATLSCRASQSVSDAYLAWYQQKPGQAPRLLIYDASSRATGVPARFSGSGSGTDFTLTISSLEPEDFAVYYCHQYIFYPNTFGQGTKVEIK
notes: Human IgG1; also called MOR3899 IgG1; MOR3899k IgG
On to B9, for which the binding result in assay [6], in assay [8], in [9] and in assay [11] was “no binding (tested: 100 nM)” in each case. In addition, the “Inhibition of Ca2+ Mobilization IC50” value in assay [1] was 5.85 nM. The Kd in assay [2] came out at 0.36 nM; in assay [3], 0.34 nM; in assay [13], 0.34 nM; in assay [14] it was 0.36 nM. The molecule further returned an IC50 in [5] of 0.05 nM.

B10: MOR03850 IgG1 (antibody, V domains shown)
VH: QVELVQSGAEVKKPGSSVKVSCKASGGTFSSYGISWVRQAPGQGLEWMGAINPLAGHTHYAQKFQGRVTITADESTSTAYMELSSLRSEDTAVYYCARYDGIYGELDFWGQGTLVTVSS
VL: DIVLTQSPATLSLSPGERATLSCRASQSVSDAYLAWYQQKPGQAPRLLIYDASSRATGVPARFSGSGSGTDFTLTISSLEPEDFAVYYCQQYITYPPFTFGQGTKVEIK
notes: Human IgG1; also called MOR3850 IgG1; MOR3850k IgG
As to B10, the binding result in assay [6], in assay [8], in assay [9] and in assay [11] was “no binding (tested: 100 nM)” throughout. In assay [1], the “Inhibition of Ca2+ Mobilization IC50” value stood at 9.47 nM. For the same molecule, the equilibrium dissociation constant (Kd) worked out at 0.01 nM in assay [2], 0.01 nM in assay [3], 0.011 nM in assay [13] and 0.021 nM in assay [14]. In assay [5], this molecule showed a half-maximal inhibitory concentration (IC50) of 0.05 nM.

For orientation: Kd means the concentration at which binding is half-saturated. The IC50 is the point on the concentration scale where inhibition reaches its midpoint.
